Source: US20130302347A1 (Genentech, published 2013)
Each block holds one binder with its values, some of them ahead of it.

Tests used:
[1] = molecular target: T1, TMEM149-Fc (human TMEM149 extracellular domain with C-terminal human IgG1 Fc) (human, UniProt Q9H665 23-160); experiment: SPR screen of TNF-like ligands
T1 construct: also called recombinant human TMEM149-Fc; Fc-TMEM149; not shown: human IgG1 Fc, C-terminal
T1 sequence: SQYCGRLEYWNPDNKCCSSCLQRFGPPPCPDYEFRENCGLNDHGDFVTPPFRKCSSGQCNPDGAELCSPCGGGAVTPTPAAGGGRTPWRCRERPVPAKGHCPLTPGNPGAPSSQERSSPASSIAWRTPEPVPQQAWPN
Description: (§1) Surface plasmon resonance (SPR) was run on a BiaCore 3000 (GE healthcare, Piscataway, N.J.) at 25° C. using anti-human IgG F(ab′)₂ (Jackson Immunoresearch, West Grove, Pa.) amine-coupled to BiaCore CM5 sensor chips. For kinetic analysis of protein interactions, Fc-fusion proteins at 25 μg/ml were first captured onto sensor chips by injecting them for 3 min at 5 μl/min. Then, test proteins diluted to their indicated concentrations in HBS-P buffer (0.01 M Hepes, pH 7.4 0.15 M NaCl 0.005% Surfactant P20) were injected for 3 min at 30 μl/min. Dissociation in HBS-P buffer alone was then measured at a flow rate of […]. Sensor chips surfaces were regenerated by injecting 10 mM glycine pH 1.5 for 30 s after each cycle. Kinetic parameters were determined by fitting the data to a 1:1 Langmuir model using the Biacore 3000 evaluation software (GE Healthcare).

[2] = molecular target: T1, TMEM149-Fc (human TMEM149 extracellular …); experiment: SPR, TMEM149-Fc captured on the chip
Description: as §1

[3] = molecular target: T2, DR4 on transfected 293T cells (UniProt O00220 24-468, limits assumed); experiment: flow cytometry of transfected 293T cells, FLAG-IGFL3 detected with fluorescent anti-FLAG
T2 construct: whole, on cells
T2 sequence (looked up): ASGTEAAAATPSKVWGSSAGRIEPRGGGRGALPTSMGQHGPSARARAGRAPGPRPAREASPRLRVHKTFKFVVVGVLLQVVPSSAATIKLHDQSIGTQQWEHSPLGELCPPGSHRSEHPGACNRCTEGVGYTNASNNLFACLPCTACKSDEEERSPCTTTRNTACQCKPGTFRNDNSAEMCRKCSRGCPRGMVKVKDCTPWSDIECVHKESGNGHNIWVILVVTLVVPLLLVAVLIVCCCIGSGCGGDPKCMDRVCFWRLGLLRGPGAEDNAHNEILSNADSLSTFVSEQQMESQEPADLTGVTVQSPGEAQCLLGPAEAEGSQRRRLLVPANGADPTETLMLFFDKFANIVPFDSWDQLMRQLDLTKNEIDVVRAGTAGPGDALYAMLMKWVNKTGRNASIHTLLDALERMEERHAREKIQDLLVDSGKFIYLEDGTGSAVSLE

[4] = molecular target: T3, nerve growth factor receptor (NGFR) on transfected 293T cells (UniProt P08138 29-427, limits assumed); experiment: as above
T3 construct: whole, on cells
T3 sequence (looked up): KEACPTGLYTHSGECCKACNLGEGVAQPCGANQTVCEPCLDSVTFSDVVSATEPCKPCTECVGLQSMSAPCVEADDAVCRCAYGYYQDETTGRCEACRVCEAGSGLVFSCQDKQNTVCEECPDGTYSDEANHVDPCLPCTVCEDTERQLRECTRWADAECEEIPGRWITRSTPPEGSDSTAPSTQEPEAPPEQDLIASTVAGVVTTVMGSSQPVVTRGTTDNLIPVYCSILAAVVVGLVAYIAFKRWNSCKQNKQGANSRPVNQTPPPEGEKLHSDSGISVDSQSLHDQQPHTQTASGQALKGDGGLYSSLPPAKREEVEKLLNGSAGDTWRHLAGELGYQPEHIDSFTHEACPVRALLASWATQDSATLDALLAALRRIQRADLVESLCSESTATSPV

[5] = molecular target: T1, TMEM149-Fc (human TMEM149 extracellular …); experiment: SPR, binding to immobilised TMEM149-Fc (7,145 RU per paragraph 67)
Description: as §1

[6] = molecular target: T4, Human TMEM149 on the cell surface (transfected HEK293T cells; human leukocytes) (human, UniProt Q9H665 23-355); experiment: radioligand competition assay; 125I-FLAG-IGFL1 against unlabelled ligand on HEK293T cells stably expressing human TMEM149
T4 construct: also called hTMEM149; MK61
T4 sequence: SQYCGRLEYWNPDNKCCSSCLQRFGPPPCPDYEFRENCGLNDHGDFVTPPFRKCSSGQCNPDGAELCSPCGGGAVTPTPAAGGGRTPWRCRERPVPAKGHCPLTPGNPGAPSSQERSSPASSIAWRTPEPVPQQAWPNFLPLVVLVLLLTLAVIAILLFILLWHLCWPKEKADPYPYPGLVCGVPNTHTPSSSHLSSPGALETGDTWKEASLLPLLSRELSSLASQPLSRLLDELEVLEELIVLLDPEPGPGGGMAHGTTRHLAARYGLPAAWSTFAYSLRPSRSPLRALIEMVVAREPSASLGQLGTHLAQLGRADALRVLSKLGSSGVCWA
Description: (§2) To determine the affinity of IGFL with TMEM149, ligands were iodinated with ¹²⁵I using the lactoperoxidase method and free ¹²⁵I-Na was removed from the labeled protein by gel filtration using a NAP-5 column. 50 μL competition reaction mixtures containing a fixed concentration of iodinated ligand and decreasing concentrations of serially diluted, unlabeled ligand were placed into 96-well plates in triplicate. To each well, HEK293T cells stably expressing human or mouse TMEM149 were added at a density of 100,000 cells in 0.2 mL of binding buffer (Dulbecco's Modified Eagle Medium with 1% bovine serum albumin, 50 mM HEPES pH 7.2 and 2 mM sodium azide). The final concentration of the iodinated ligand with cells in each competition reaction was 100 pM (100,000 cpms per 0.25 mL). The final concentration of the unlabeled ligand with cells in the competition reaction varied, starting at 500 nM and then decreasing by 1- to 2-fold dilution for ten concentrations, and included a zero-added, buffer-only sample. Competition reactions were incubated for 2 hours at room temperature, then transferred to a Millipore Multiscreen filter plate (Billerica, Mass.) and washed 4 times with binding buffer to separate the free from bound iodinated antibody. The filters were counted on a Wallac Wizard 1470 gamma counter (PerkinElmer Life and Analytical Sciences Inc.; Wellesley, Mass.).

[7] = molecular target: T4, Human TMEM149 on the cell surface …; experiment: radioligand competition: 125I-FLAG-IGFL1 (100 pM) on HEK293T cells expressing human TMEM149, unlabelled FLAG-IGFL1 varied
Description: B) FACS analysis of IFGL1 binding to cells expressing surface TMEM149. […] Reference is made to Examples 10 and 11.
as §2, with “Competition reactions were incubated for 2 hours at room temperature, then transferred to a Millipore Multiscreen filter plate (Billerica, Mass.) and washed 4 times with binding buffer to separate the free from bound iodinated antibody.” left out

[8] = molecular target: T1, TMEM149-Fc (human TMEM149 extracellular …); experiment: SPR (BiaCore 3000); TMEM149-Fc captured by anti-human IgG, 1:1 Langmuir fit
Description: as §1

[9] = molecular target: T2, DR4 on transfected 293T cells; experiment: flow cytometry of transfected 293T cells, FLAG-IGFL1 detected with fluorescent anti-FLAG
[10] = molecular target: T3, nerve growth factor receptor (NGFR) on …; experiment: as above

- binding result [1]: no binding
B1: GITRL (ligand, UniProt Q9UNG2 52-177, looked up)
chain: ETAKEPCMAKFGPLPSKWQMASSEPPCVNKVSDWKLEILQNGLYLIYGQVAPNANYNDVAPFEVRLYKNKDMIQTLTNKSKIQNVGGTYELHVGDTIDLIFNSEHQVLKNNTYWGIILLANPQFIS

- binding result [5]: no binding (tested: 108 µg/ml)
B3: FLAG-IGFL4 (recombinant human IGFL4 with FLAG epitope tag) (ligand, not shown: small tags and cut ends)
chain: EGVTDLRLWLCQPAPRCGEWTYNPLEQCCDDGVILDLNQTRLCGSSCTFWPCFQHCCLESLGSQNQTVVRFKVPGMKPDCKSSPITRICAQEYHPKSPVSRSDLI

- binding result [1]: no binding
B4: OX40L (ligand, UniProt P23510 51-183, looked up)
chain: QVSHRYPRIQSIKVQFTEYKKEKGFILTSQKEDEIMKVQNNSVIINCDGFYLISLKGYFSQEVNISLHYQKDEEPLFQLKKVRSVNSLMVASLTYKDKVYLNVTTDNTSLDDFHVNGGELILIHQNPGEFCVL

The next lines start with the binder.

B2: FLAG-IGFL3 (recombinant human IGFL3 with FLAG epitope tag) (ligand, not shown: small tags and cut ends)
chain: TTDAPVGSGLWLCQPTPRCGNKIYNPSEQCCYDDAILSLKETRRCGSTCTFWPCFELCCPESFGPQQKFLVKLRVLGMKSQCHLSPISRSCTRNRRHVLYP
notes: also called hIGFL3
- Kd [2]: 0.08 nM
- binding result [3]: no binding
- binding result [4]: no binding

B5: FLAG-IGFL1 (recombinant human IGFL1 with FLAG epitope tag) (ligand)
chain: APVAPMTPYLMLCQPHKRCGDKFYDPLQHCCYDDAVVPLARTQTCGNCTFRVCFEQCCPWTFMVKLINQNCDSARTSDDRLCRSVS
notes: Made in CHO cells; Signal peptide cleavage is predicted only; also called hIGFL1; IGFL1-FLAG; not shown: printed both as FLAG-IGFL1 and IGFL1-FLAG, so the end that carries the tag is not
- Kd [6]: 0.31 nM
- IC50 (read off the curve) [7]: ~0.5 nM
- Kd [8]: 1.2 nM
- binding result [9]: no binding
- binding result [10]: no binding

B6: FLAG-IGFL2 (recombinant human IGFL2 with FLAG epitope tag) (ligand, not shown: small tags and cut ends)
chain: PAGSEPWLCQPAPRCGDKIYNPLEQCCYNDAIVSLSETRQCGPPCTFWPCFELCCLDSFGLTNDFVVKLKVQGVNSQCHSSPISSKCESRRRFP
notes: Signal peptide cleavage is predicted only
- binding result [5]: binds
